This test has as its target Human CD16 (biotinylated, Sino Biological Inc, cat#10389-H27H1-B) (human, UniProt P08637 17-208, biotinylated). The test can be described thus: ELISA, biotinylated CD16 captured on neutravidin, anti-human Fab-HRP detection.

This note sets out measurements from patent publication EP2767548A2 (Argen-X B.V., dated 2014).

Sequence of Human CD16 (biotinylated, Sino Biological Inc, cat#10389-H27H1-B) (P08637 17-208): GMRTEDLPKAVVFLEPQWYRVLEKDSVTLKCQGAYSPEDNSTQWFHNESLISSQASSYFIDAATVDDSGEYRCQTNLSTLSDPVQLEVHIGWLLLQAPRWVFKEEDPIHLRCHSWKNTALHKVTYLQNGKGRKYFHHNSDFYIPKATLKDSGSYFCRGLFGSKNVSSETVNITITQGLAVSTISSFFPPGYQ

B1: IgG3-MAB1 (antibody)
chain 1: QLLLQESGPGLVKPSETLSLTCTVSGGSLSSSFSYWVWIRQPPGKGLEWIGTIYYSGNTYYNPSLKSRLTISVDTSKNHFSLKLSSVTAADTAVYYCARRAGILTGYLDSWGQGTLVTVSS
chain 2: SYVLTQSPSVSVAPGQTARITCGGNNIGSKSVHWYQQKPGQAPVLVVYDDSDRPSGIPERFSASNSGNTATLTISRVEAGDEADYYCQVWDSSSDHVVFGGGTKLTVL
B1: the EC50 was 3.58 µg/mL.

A word on the EC50: it is the concentration that produces a half-maximal response.
